The values below come from article PMC6058054, “Mining the Genome of Streptomyces leeuwenhoekii: Two New Type I Baeyer–Villiger Monooxygenases From Atacama Desert” (Frontiers in Microbiology, 2018).

The target of one series is T1, Sle_13190 (Streptomyces leeuwenhoekii, UniProt A0A0F7VUW7).
T1 construct: full-length, fused to N-terminal His-tagged phosphite dehydrogenase (PTDH) in pCRE2, fusion kept; expressed in E. coli NEB 10-beta; FAD flavoprotein
Nature of the series: UV-vis spectrum of purified flavoprotein; FAD quantified after SDS unfolding. The series is classed as binding. The note with it: co-purified FAD.

The target in a further series is T2, Sle_62070 (Streptomyces leeuwenhoekii, UniProt A0A0F7W6X7).
T2 construct: full-length, fused to N-terminal His-tagged phosphite dehydrogenase (PTDH) in pCRE2, fusion kept; expressed in E. coli NEB 10-beta; FAD flavoprotein
The series is described as above. It counts as binding. As to conditions: co-purified FAD.

Substrate in series [1]: CC(=O)Cc1ccccc1
Nature of the series: purified protein. The note with it: 150 uM NADPH, 10 uM FAD, 50 mM Tris-HCl pH 8.0, 10% glycerol, 100 mM NaCl, 2.5% 1,4-dioxane, 25 C.

Substrate in series [2]: O=C1CC2C=CCC12
Nature of the series: purified protein. It counts as biochemical, Streptomyces leeuwenhoekii. The note with it: 150 uM NADPH, 10 uM FAD, 50 mM Tris-HCl pH 8.0, 10% glycerol, 100 mM NaCl, 2.5% 1,4-dioxane, 25 C.

Substrate in series [3]: O=C1CCC(c2ccccc2)CC1
Nature of the series: purified protein. It counts as biochemical, Streptomyces leeuwenhoekii. The note with it: 150 uM NADPH, 10 uM FAD, 50 mM Tris-HCl pH 8.0, 10% glycerol, 100 mM NaCl, 2.5% 1,4-dioxane, 25 C.

Substrate in series [4]: O=C1CCCCC1c1ccccc1
Nature of the series: purified protein. As to conditions: 150 uM NADPH, 10 uM FAD, 50 mM Tris-HCl pH 8.0, 10% glycerol, 100 mM NaCl, 2.5% 1,4-dioxane, 25 C. It counts as biochemical, Streptomyces leeuwenhoekii.

With `Cc1cc2nc3c(=O)[nH]c(=O)nc-3n(C[C@H](O)[C@H](O)[C@H](O)COP(=O)(O)OP(=O)(O)OC[C@H]3O[C@@H](n4cnc5c(N)ncnc54)[C@H](O)[C@@H]3O)c2cc1C` [FAD], the “UV-vis spectrum of purified flavoprotein; FAD quantified after SDS unfolding” value is “a clear yellow color was indicative of proper folding and FAD binding” on Sle_13190; “a clear yellow color was indicative of proper folding and FAD binding” on Sle_62070.

B1: Sle_62070 (Streptomyces leeuwenhoekii) (protein)
chain: MTQGQTLSPEELAGLRERYRLERERRVRPDGTRQYLAADAEFGYYAEDPYAGEPPEREPLRDRVDVAVVGGGFGGILAGARLRRRGVRRVRVIEKGGDFGGTWYWNRYPGIHCDIESHVYLPLLDETGYVPEWKYAPGEEIRRHAVRIAEKFDLYADAQFSTAVTSLTWDEETRAWVVATDRGDEFRATYVITATGTLSELKLPGIPGIETFEGHTFHTSRWDYAYTGGTPDGGLTGLADKRVGVVGTGATGIQVIPKLAEDAGHLYVFQRTPSSVDVRANRRTTPQDVGADRDGWARERRDNFLRIVSGETAEEDLVADQWTASAGLLEKLVPSFRRQGDRTAFEAAYEVADAAKMNEIRARVERIVTDRDTAEKLKPWYRYACKRPTFSDTYLQAFNRDNVTLVDTADTHGIERMTERGVVVGGTEYALDCLIFATGFSVGVSGVHSGRLPVRGRGGVQLLDAWRKEGPRTLHGFTSNGFPNLIQMGTVQNASSVNYTHVLDEQAVHAAALVAAAEAKGAVIEPSREAEDAWIAVLAEDAPDHEWFHAECTPGYYNAEGRGRAKGPTAYPHGASAFHELLRRWREESMDGILRAGTPVRGPGGSTVS
notes: full-length, fused to N-terminal His-tagged phosphite dehydrogenase (PTDH) in pCRE2, fusion kept; expressed in E. coli NEB 10-beta; FAD flavoprotein
B1: the Michaelis-Menten constant (Km) came to 3000 ± 300 µM in the series “purified protein [1]” and 200 ± 10 µM in the series “purified protein [2]”. For the same molecule, the kcat in the series “purified protein [1]” was 4.1 s⁻¹; in the series “purified protein [2]”, 4 ± 0.06 s⁻¹; in the series “purified protein [3]”, greater than 4 s⁻¹; in “purified protein [4]”, greater than 4 s⁻¹. In addition, the kcat/Km in “purified protein [1]” is 1300 M⁻¹ s⁻¹; in the series “purified protein [2]”, 20000 M⁻¹ s⁻¹; in the series “purified protein [3]”, 1300 M⁻¹ s⁻¹; in “purified protein [4]”, 1300 M⁻¹ s⁻¹.
